Measured values taken from article PMC10786891, “Massively parallel profiling of RNA-targeting CRISPR-Cas13d”.

T1: EsCas13d, nuclease-dead (Eubacterium siraeum, UniProt B0MS50, R295A;H300A;R849A;H854A)
T1 sequence: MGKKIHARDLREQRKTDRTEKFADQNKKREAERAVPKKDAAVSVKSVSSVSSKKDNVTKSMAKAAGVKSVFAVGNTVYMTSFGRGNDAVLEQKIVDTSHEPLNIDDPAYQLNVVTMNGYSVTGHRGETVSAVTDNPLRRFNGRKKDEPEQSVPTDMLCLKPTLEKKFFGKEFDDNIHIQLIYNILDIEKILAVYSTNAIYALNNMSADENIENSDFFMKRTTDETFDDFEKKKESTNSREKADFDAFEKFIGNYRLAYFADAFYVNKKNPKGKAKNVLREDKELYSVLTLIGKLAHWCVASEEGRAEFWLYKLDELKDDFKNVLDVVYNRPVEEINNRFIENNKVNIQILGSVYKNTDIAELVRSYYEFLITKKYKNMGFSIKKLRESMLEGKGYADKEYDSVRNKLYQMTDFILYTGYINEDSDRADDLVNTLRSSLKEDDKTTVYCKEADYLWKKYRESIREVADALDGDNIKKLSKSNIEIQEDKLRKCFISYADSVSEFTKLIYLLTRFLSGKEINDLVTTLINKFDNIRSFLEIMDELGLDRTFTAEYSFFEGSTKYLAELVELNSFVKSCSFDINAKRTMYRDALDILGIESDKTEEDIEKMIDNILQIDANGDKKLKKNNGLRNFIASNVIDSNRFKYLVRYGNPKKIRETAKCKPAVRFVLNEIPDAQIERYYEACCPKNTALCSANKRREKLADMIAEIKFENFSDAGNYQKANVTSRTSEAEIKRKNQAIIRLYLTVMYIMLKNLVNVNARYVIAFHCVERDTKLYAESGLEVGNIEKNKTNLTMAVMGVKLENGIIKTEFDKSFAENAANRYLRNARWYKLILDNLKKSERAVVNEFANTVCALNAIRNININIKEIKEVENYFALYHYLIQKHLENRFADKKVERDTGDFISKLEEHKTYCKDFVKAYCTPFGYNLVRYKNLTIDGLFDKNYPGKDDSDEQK


target: T1, EsCas13d, nuclease-dead; test: crRNA (strand 1, pre-loaded); Mg2+; 40 mM Tris-HCl pH 7.5, 150 mM NaCl, 6 mM MgCl2, 1 mM DTT, 0.1% Tween-20, 0.2 mg/ml BSA; 25 C; 10 min per concentration, then washed; settings: tags: His6-TwinStrep-SUMO cleaved; N-terminal SNAP kept (SNAP-Surface 488); label: 3' end held by stalled T7 RNA polymerase

Binder | Kd
target 1 insU 3' of 15,insG 3' of 7 (mixed) RNA 1: CACCCGUGCAAAAAUGCAGGGGUCUAAAACUGAGCGGAUAACCUCUCUAUGG RNA 2: GGGAAUGGAUCCACAUCUACGAAUUCGUACCAUAGAGUAGGUUAUCGCGCUCACCGAGAUCGGAAGAGCACACGU | 10.7 ± 0.4 nM
target 1 G5U,U11A (mixed) RNA 1: CACCCGUGCAAAAAUGCAGGGGUCUAAAACUGAGCGGAUAACCUCUCUAUGG RNA 2: GGGAAUGGAUCCACAUCUACGAAUUCGUACCAUAGAGAGGAUAUCCUCUCACCGAGAUCGGAAGAGCACACGU | ~60 nM
target 1 insC 3' of 8,insU 3' of 4 (mixed) RNA 1: CACCCGUGCAAAAAUGCAGGGGUCUAAAACUGAGCGGAUAACCUCUCUAUGG RNA 2: GGGAAUGGAUCCACAUCUACGAAUUCGUACCAUAGAGAGGUUAUCCCGCUUCACCGAGAUCGGAAGAGCACACGU | 12.2 ± 1 nM
target 1 G12U,C21U (mixed) RNA 1: CACCCGUGCAAAAAUGCAGGGGUCUAAAACUGAGCGGAUAACCUCUCUAUGG RNA 2: GGGAAUGGAUCCACAUCUACGAAUUCGUACUAUAGAGAGUUUAUCCGCUCACCGAGAUCGGAAGAGCACACGU | 7.4 ± 0.5 nM
target 1 C2A,U3G (mixed) RNA 1: CACCCGUGCAAAAAUGCAGGGGUCUAAAACUGAGCGGAUAACCUCUCUAUGG RNA 2: GGGAAUGGAUCCACAUCUACGAAUUCGUACCAUAGAGAGGUUAUCCGCGAACCGAGAUCGGAAGAGCACACGU | 8.6 ± 0.7 nM
target 1 del15,del22 (mixed) RNA 1: CACCCGUGCAAAAAUGCAGGGGUCUAAAACUGAGCGGAUAACCUCUCUAUGG RNA 2: GGGAAUGGAUCCACAUCUACGAAUUCGUACAUAGAAGGUUAUCCGCUCACCGAGAUCGGAAGAGCACACGU | 54 ± 23 nM
target 1 insG 3' of 22,insA 3' of 11 (mixed) RNA 1: CACCCGUGCAAAAAUGCAGGGGUCUAAAACUGAGCGGAUAACCUCUCUAUGG RNA 2: GGGAAUGGAUCCACAUCUACGAAUUCGUACGCAUAGAGAGGUAUAUCCGCUCACCGAGAUCGGAAGAGCACACGU | 33 ± 4 nM
target 1 insC 3' of 19,insU 3' of 15 (mixed) RNA 1: CACCCGUGCAAAAAUGCAGGGGUCUAAAACUGAGCGGAUAACCUCUCUAUGG RNA 2: GGGAAUGGAUCCACAUCUACGAAUUCGUACCAUCAGAGUAGGUUAUCCGCUCACCGAGAUCGGAAGAGCACACGU | 62 ± 26 nM
target 1 insA 3' of 15,insG 3' of 11 (mixed) RNA 1: CACCCGUGCAAAAAUGCAGGGGUCUAAAACUGAGCGGAUAACCUCUCUAUGG RNA 2: GGGAAUGGAUCCACAUCUACGAAUUCGUACCAUAGAGAAGGUGUAUCCGCUCACCGAGAUCGGAAGAGCACACGU | 24 ± 4 nM
target 1 insG 3' of 19,insG 3' of 9 (mixed) RNA 1: CACCCGUGCAAAAAUGCAGGGGUCUAAAACUGAGCGGAUAACCUCUCUAUGG RNA 2: GGGAAUGGAUCCACAUCUACGAAUUCGUACCAUGAGAGAGGUUAGUCCGCUCACCGAGAUCGGAAGAGCACACGU | 44 ± 5 nM
target 1 C6A,A18G (mixed) RNA 1: CACCCGUGCAAAAAUGCAGGGGUCUAAAACUGAGCGGAUAACCUCUCUAUGG RNA 2: GGGAAUGGAUCCACAUCUACGAAUUCGUACCAUGGAGAGGUUAUCAGCUCACCGAGAUCGGAAGAGCACACGU | 98 ± 20 nM
target 1 U3C,G5A (mixed) RNA 1: CACCCGUGCAAAAAUGCAGGGGUCUAAAACUGAGCGGAUAACCUCUCUAUGG RNA 2: GGGAAUGGAUCCACAUCUACGAAUUCGUACCAUAGAGAGGUUAUCCACCCACCGAGAUCGGAAGAGCACACGU | 67 ± 22 nM
target 1 G5C,A14C (mixed) RNA 1: CACCCGUGCAAAAAUGCAGGGGUCUAAAACUGAGCGGAUAACCUCUCUAUGG RNA 2: GGGAAUGGAUCCACAUCUACGAAUUCGUACCAUAGAGCGGUUAUCCCCUCACCGAGAUCGGAAGAGCACACGU | 14.5 ± 1.5 nM
target 1 insG 3' of 8,insA 3' of 8 (mixed) RNA 1: CACCCGUGCAAAAAUGCAGGGGUCUAAAACUGAGCGGAUAACCUCUCUAUGG RNA 2: GGGAAUGGAUCCACAUCUACGAAUUCGUACCAUAGAGAGGUUAUGACCGCUCACCGAGAUCGGAAGAGCACACGU | 27.2 ± 1.4 nM
target 1 C7U,U11C (mixed) RNA 1: CACCCGUGCAAAAAUGCAGGGGUCUAAAACUGAGCGGAUAACCUCUCUAUGG RNA 2: GGGAAUGGAUCCACAUCUACGAAUUCGUACCAUAGAGAGGCUAUUCGCUCACCGAGAUCGGAAGAGCACACGU | 8.7 ± 0.4 nM
target 1 A16C,G17C (mixed) RNA 1: CACCCGUGCAAAAAUGCAGGGGUCUAAAACUGAGCGGAUAACCUCUCUAUGG RNA 2: GGGAAUGGAUCCACAUCUACGAAUUCGUACCAUACCGAGGUUAUCCGCUCACCGAGAUCGGAAGAGCACACGU | ~100 nM
target 1 insU 3' of 13,insC 3' of 11 (mixed) RNA 1: CACCCGUGCAAAAAUGCAGGGGUCUAAAACUGAGCGGAUAACCUCUCUAUGG RNA 2: GGGAAUGGAUCCACAUCUACGAAUUCGUACCAUAGAGAGUGUCUAUCCGCUCACCGAGAUCGGAAGAGCACACGU | 29 ± 7 nM
target 1 U3C,U8G (mixed) RNA 1: CACCCGUGCAAAAAUGCAGGGGUCUAAAACUGAGCGGAUAACCUCUCUAUGG RNA 2: GGGAAUGGAUCCACAUCUACGAAUUCGUACCAUAGAGAGGUUAGCCGCCCACCGAGAUCGGAAGAGCACACGU | 18.6 ± 1.2 nM
target 1 U8G,U10G (mixed) RNA 1: CACCCGUGCAAAAAUGCAGGGGUCUAAAACUGAGCGGAUAACCUCUCUAUGG RNA 2: GGGAAUGGAUCCACAUCUACGAAUUCGUACCAUAGAGAGGUGAGCCGCUCACCGAGAUCGGAAGAGCACACGU | 20 ± 1.1 nM
target 1 insC 3' of 14,insG 3' of 1 (mixed) RNA 1: CACCCGUGCAAAAAUGCAGGGGUCUAAAACUGAGCGGAUAACCUCUCUAUGG RNA 2: GGGAAUGGAUCCACAUCUACGAAUUCGUACCAUAGAGACGGUUAUCCGCUCAGCCGAGAUCGGAAGAGCACACGU | 50 ± 12 nM
target 1 insC 3' of 17,insG 3' of 1 (mixed) RNA 1: CACCCGUGCAAAAAUGCAGGGGUCUAAAACUGAGCGGAUAACCUCUCUAUGG RNA 2: GGGAAUGGAUCCACAUCUACGAAUUCGUACCAUAGCAGAGGUUAUCCGCUCAGCCGAGAUCGGAAGAGCACACGU | 44 ± 16 nM
target 1 U3G,G17A (mixed) RNA 1: CACCCGUGCAAAAAUGCAGGGGUCUAAAACUGAGCGGAUAACCUCUCUAUGG RNA 2: GGGAAUGGAUCCACAUCUACGAAUUCGUACCAUAAAGAGGUUAUCCGCGCACCGAGAUCGGAAGAGCACACGU | 37 ± 4 nM
target 1 G15C,A16G (mixed) RNA 1: CACCCGUGCAAAAAUGCAGGGGUCUAAAACUGAGCGGAUAACCUCUCUAUGG RNA 2: GGGAAUGGAUCCACAUCUACGAAUUCGUACCAUAGGCAGGUUAUCCGCUCACCGAGAUCGGAAGAGCACACGU | 71 ± 11 nM
target 1 G17A,U19G (mixed) RNA 1: CACCCGUGCAAAAAUGCAGGGGUCUAAAACUGAGCGGAUAACCUCUCUAUGG RNA 2: GGGAAUGGAUCCACAUCUACGAAUUCGUACCAGAAAGAGGUUAUCCGCUCACCGAGAUCGGAAGAGCACACGU | 51 ± 6 nM
